3 molecules from PMC10115451 (eLife, 2023) can be followed below.

Test [1] deals with T1, ANDV Gn/Gc (Andes virus glycoproteins from the full-length M segment, on the cell surface) (Andes virus, GenBank AF291703.2 …, UniProt Q9E006).
T1 construct: source: Expi293F cells, transfected, on the cell surface
In words: flow cytometry on cells. Particulars: one partner purified.

Test [2] concerns the target MAPV Gn^H/Gc (linked Maporal virus Gn head domain and Gc ectodomain) (Maporal virus, strain HV-97021050, UniProt Q5MYC0). As to the kind of experiment: ELISA. Particulars: both partners purified.
Test [3] concerns the target T2, ANDV Gc (Andes virus Gc ectodomain) (Andes virus, NP_604472.1 (Chile-9717869), UniProt Q9E006).
T2 construct: source: Drosophila S2 cells, purified
As to the kind of experiment: ELISA. Particulars: both partners purified.

Test [4] deals with T3, ANDV Gn^B (Andes virus Gn base domain) (Andes virus, NP_604472.1 (Chile-9717869), UniProt Q9E006).
T3 construct: source: Drosophila S2 cells, purified
T3 sequence (Q9E006 375-484): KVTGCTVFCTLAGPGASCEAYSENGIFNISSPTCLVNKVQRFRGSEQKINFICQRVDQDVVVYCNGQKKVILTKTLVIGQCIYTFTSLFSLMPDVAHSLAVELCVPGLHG
In words: ELISA. Particulars: both partners purified.

T1 sequence (Q9E006 whole entry, looked up): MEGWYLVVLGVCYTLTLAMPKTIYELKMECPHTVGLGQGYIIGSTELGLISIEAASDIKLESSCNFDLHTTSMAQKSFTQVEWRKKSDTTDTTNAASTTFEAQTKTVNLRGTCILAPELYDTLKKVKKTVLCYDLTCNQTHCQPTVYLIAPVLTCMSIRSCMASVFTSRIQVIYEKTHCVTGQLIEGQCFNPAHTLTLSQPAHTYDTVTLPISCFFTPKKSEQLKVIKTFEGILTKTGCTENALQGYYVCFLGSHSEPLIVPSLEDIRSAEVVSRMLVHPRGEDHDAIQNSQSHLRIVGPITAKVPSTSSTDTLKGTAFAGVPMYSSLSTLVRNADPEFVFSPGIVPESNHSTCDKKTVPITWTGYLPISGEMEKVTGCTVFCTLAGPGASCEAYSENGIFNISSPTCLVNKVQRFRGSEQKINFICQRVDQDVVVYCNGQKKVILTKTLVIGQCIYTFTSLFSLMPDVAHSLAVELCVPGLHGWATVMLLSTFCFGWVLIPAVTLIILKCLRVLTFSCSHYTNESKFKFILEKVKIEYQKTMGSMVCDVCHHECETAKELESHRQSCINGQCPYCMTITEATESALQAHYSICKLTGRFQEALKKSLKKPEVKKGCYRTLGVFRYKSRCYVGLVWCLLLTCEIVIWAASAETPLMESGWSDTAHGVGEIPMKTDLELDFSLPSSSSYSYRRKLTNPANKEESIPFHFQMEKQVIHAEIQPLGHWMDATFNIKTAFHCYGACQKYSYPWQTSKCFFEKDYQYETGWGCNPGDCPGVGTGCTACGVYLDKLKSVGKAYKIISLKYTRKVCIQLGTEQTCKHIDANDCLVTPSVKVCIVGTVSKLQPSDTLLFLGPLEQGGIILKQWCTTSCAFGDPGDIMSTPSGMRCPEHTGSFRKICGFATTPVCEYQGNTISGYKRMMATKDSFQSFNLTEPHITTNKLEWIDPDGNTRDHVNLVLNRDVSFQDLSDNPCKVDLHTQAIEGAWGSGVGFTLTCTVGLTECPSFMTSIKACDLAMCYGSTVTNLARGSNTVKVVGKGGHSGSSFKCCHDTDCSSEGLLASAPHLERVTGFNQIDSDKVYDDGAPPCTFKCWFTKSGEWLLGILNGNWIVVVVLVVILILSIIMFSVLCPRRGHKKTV
T2 sequence (Q9E006 652-1107): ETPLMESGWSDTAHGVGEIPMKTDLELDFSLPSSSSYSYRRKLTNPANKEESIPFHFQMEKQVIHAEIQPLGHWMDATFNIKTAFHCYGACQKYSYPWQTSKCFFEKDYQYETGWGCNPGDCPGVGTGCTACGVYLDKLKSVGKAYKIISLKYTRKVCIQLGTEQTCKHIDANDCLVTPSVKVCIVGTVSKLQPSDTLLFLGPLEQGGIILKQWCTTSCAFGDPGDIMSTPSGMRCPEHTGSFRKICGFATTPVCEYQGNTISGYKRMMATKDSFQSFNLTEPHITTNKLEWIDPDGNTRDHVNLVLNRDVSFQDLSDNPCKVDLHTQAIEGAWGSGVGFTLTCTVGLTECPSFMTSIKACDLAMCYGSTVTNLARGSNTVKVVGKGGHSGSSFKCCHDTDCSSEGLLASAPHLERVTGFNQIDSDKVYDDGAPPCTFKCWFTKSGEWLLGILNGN

B1: ANDV-5 (human monoclonal antibody, IgG1) (antibody, V domains shown)
VH: QVQLLQSGAEVKKPGSSVRVSCQSSGDIYNYYGISWVRQAPGQGLEWMGGIIPVYGRPNYVQKFRGRVTFTVDKSTSTAYMELSTLRADDTAVYYCARDTARSHYFGSGNDYGMDVWGQGTTVIVSS
VL: DIVMTQSPLSLPVTPGEPASISCRSSQSLLHSNGFNFVDWYLQKPGQSPQLLIYLGSTRASGVPDRFSGSGSGTDFTLEISRVEAEDVGVYYCMQALQFPRTFGQGTKLDIK
notes: also called rANDV-5; ANDV-5 IgG; source: ExpiCHO cells, transiently transfected, purified (HiTrap MabSelectSure); copies: 2 + 2
On to B1, for which the binding result in test [1] is recorded as “binds”; in test [2] it was “binds”; in test [3], “no binding”; in test [4], “no binding”.

B2: ANDV-5 Fab (Fab, V domains shown)
VH: B1 VH
VL: B1 VL
notes: also called Fab ANDV-5; Fab form of ANDV-5; source: ExpiCHO cells, transiently transfected, purified (CaptureSelect CH1-XL)
B2: in test [1], the binding result was “binds”.

B3: ANDV-34 (human monoclonal antibody, IgG1) (antibody, V domains shown)
VH: QVHLVQSGGELRKPGSSVKVSCKASGGTFSSFAITWLRQAPGQGLEWVGAYIPVFGSAIHGQKVHGRVTLTADESTTTAYMELSSLRSEDTAVYFCARGPTQNWEYSYYTYFESWGQGTLVTVSS
VL: QIVLTQSPGTLSLSPGERATLSCRASQSVTSRYLAWYQQKPGQAPRLLIYDTSSRATGIPDRFSGSGSETDFTLTISRLAPEDFAVYYCQQYGTSPAVTFGQGTRLEIK
notes: also called rANDV-34; source: ExpiCHO cells, transiently transfected, purified (HiTrap MabSelectSure); copies: 2 + 2
For the molecule B3, the binding result in test [1] is on record as “binds”; in test [2] it was “no binding”; in test [3], “no binding”; in test [4], “no binding”.
